Results reported in patent US20240117011A1.

Target: spike of variant B.1.351 v.1 on pseudovirus
Experiment: cell-based or functional assay

CB6 (antibody)
neutralization IC50: > 10 µg/mL

LY-CoV555 (antibody)
neutralization IC50: > 10 µg/mL
